Laboratory results reported in article PMC11780864, “RNA G-quadruplex structure-based PROTACs for targeted DHX36 protein degradation and gene activity modulation in mammalian cells”.

T1: RHAU53 peptide (DHX36 fragment) (UniProt Q9H2U1)
T1 chain: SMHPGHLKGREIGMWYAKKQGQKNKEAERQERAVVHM


Tests used:
[1] = molecular target: T1, RHAU53 peptide (DHX36 fragment); assay: EMSA; EMSA and MST: 25 mM Tris-HCl pH 7.5, 150 mM KCl, 1 mM MgCl2, 37 C 30 min; 30 nM (EMSA) or 40 nM (MST) FAM-oligo; EMSA gel 10% native PAGE, 0.5x TBE, 4 C; conditions: label: 3'-FAM; for binding result: non-G4
[2] = molecular target: T1, RHAU53 peptide (DHX36 fragment); assay: competition; EMSA vs 30 nM FAM_dG4_A, 100 nM RHAU53; EMSA and MST: 25 mM Tris-HCl pH 7.5, 150 mM KCl, 1 mM MgCl2, 37 C 30 min; 30 nM (EMSA) or 40 nM (MST) FAM-oligo; EMSA gel 10% native PAGE, 0.5x TBE, 4 C; conditions: G4
[3] = molecular target: T1, RHAU53 peptide (DHX36 fragment); assay: EMSA; Kd1, first shift; EMSA and MST: 25 mM Tris-HCl pH 7.5, 150 mM KCl, 1 mM MgCl2, 37 C 30 min; 30 nM (EMSA) or 40 nM (MST) FAM-oligo; EMSA gel 10% native PAGE, 0.5x TBE, 4 C; conditions: label: 3'-FAM; G4

| Binder | Kd [3] | also measured |
| --- | --- | --- |
| TTGTGTGTGTGTGTGTGT (ssDNA, 5'-hexynyl clicked to AHPC-PEG2) [FAM_dG4 mut_A] |  | binding result [1]: no binding |
| GGGUUGCGGAGGGUGGGCCU (structured_RNA, 5'-hexynyl clicked to AHPC-PEG2) [rG4_A (unlabelled)] |  | IC50 [2]: 0.1768 ± 0.001 µM |
| GGGUUGCGGAGGGUGGGCCU (structured_RNA, 5'-hexynyl clicked to pomalidomide-PEG1-C2) [FAM_rG4_P_PEG1-C2] | 0.174 ± 0.0353 µM |  |
| GAGUUGCGGAGAGUGAGCCU (ssRNA, 5'-hexynyl clicked to AHPC-PEG2) [FAM_rG4 mut_A] |  | binding result [1]: no binding |
| TTGGGTGGGTGGGTGGGT (structured_DNA, 5'-hexynyl clicked to AHPC-PEG2) [FAM_dG4_A (T95-2T)] | 0.317 ± 0.0451 µM |  |
| GGGUUGCGGAGGGUGGGCCU (structured_RNA, 5'-hexynyl clicked to pomalidomide-C6) [FAM_rG4_P_C6] | 0.161 ± 0.0262 µM |  |
| GGGUUGCGGAGGGUGGGCCU (structured_RNA, 5'-hexynyl clicked to pomalidomide-PEG2) [FAM_rG4_P_PEG2] | 0.132 ± 0.0255 µM |  |
| GGGUUGCGGAGGGUGGGCCU (structured_RNA, 5'-hexynyl clicked to AHPC-PEG2 (VHL ligand)) [FAM_rG4_A_PEG2 (FAM_rG4_A)] | 0.0675 ± 0.0132 µM |  |
| GGGUUGCGGAGGGUGGGCCU (structured_RNA, 5'-hexynyl clicked to AHPC-C6) [FAM_rG4_A_C6] | 0.0703 ± 0.0093 µM |  |
| GGGUUGCGGAGGGUGGGCCU (structured_RNA, 5'-hexynyl) [FAM_rG4 (5' Hexynyl_hTERC rG4 WT_3' FAM)] |  | Kd ([1]; G4): 0.0667 ± 0.0165 µM |
